Assay results as given in publication PMC5656322, “BAK1 is involved in AtRALF1-induced inhibition of root cell expansion” (PLoS Genetics, 2017).
Where no end group is shown, it is not given here.

Target: T1, BAK1-ECD (Arabidopsis thaliana, UniProt Q94F62)
T1 construct: Isothermal titration calorimetry (ITC) of the extracellular domain of BAK1 (BAK1-ECD) vs. AtRALF1; made in house; host or cells: Escherichia coli Rosetta DE3 or BL21
T1 sequence (Q94F62 26-225 limits assumed): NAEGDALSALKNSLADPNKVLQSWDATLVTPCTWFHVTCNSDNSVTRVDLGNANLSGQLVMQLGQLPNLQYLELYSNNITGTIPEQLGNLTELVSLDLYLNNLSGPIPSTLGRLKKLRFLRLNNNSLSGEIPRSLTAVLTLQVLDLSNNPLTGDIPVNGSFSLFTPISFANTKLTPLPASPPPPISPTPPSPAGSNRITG
Experiment: Isothermal titration calorimetry (ITC)
Assay type: binding
Excerpt: Fig 6 AtRALF1 interacts physically with BAK1 protein. (A) The active AtRALF1 peptide interacts with the extracellular domain (ECD) of BAK1 (BAK1-ECD) in yeast. The AtRALF1 protein fused to the GAL4 DNA-binding domain (AtRALF1-pGBKT7) was used as bait to test its interaction with the extracellular domain of the proteins fused to the GAL4 activation domain (pGADT7): BAK1 (BAK1-ECD), BAK7 (BAK7-ECD), BRI1 (BRI1-ECD) and FLS2 (FLS2-ECD). (B) Blueprint showing the truncated proteins from the extracellular domain of BAK1 tested in the two-hybrid assay. The extracellular domain of BAK1 comprises leucine zippers (LZ), 5 leucine rich-regions (LRRs) and a proline-rich region (pro-rich). (C) AtRALF1-pGBKT7 was used as bait to test its interaction with truncated proteins fused to the GAL4 activation domain (pGADT7). The transformed yeast cells in (A) and (C) were selected on a synthetic complete medium lacking leucine, tryptophan and histidine to test interactions. (D, E) Co-immunoprecipitation (Co-IP) in vitro between the extracellular domain of BAK1 (HA-BAK1-ECD) and AtRALF1 recombinant purified proteins. HA-BAK1-ECD was detected with an anti-HA antibody. AtRALF1 was detected with an anti-RALF antibody. (F) Recombinant AtRALF1 is co-immunoprecipitated with the BAK1-GFP protein expressed in tobacco. BAK1-GFP was detected with an anti-GFP antibody. […] (G) Isothermal titration calorimetry (ITC) of the extracellular domain of BAK1 (BAK1-ECD) vs. AtRALF1 in ITC buffer (15 mM HEPES, pH 6.8). ITC experiments were simulated using 28 injections of BAK1-ED (0.7 mM, vol 10 μL) on AtRALF1 (0.03 mM vol cell = 1.4 mL) at 25°C. Kd = dissociation constant; N = number of binding sites.
ITC was performed using a VP ITC with a 1.4 ml standard cell and a 293 μl titration syringe. Proteins were dissolved in ITC buffer (15 mM HEPES (4-(2-hydroxyethyl)-1-piperazineethanesulfonic acid, pH 6.8) and the experiments were performed at 25°C. Molar protein concentration for BAK1-ECD and AtRALF1 were calculated using their molecular weight of 25,654.04 and 7,631 Da, respectively (determined by HPLC). The concentrations for the complex titrations were 0.7 mM of protein (BAK1-ECD) in the syringe and 0.03 mM of ligand (AtRALF1) in the cell at time intervals of 300 s (28 injections of volume 10 μl) to ensure that the titration peak returned to the baseline.
ITC data were corrected for the heat of dilution by subtracting the mixing enthalpies for titrant solution injections into protein free ITC buffer. Data were analyzed using the Origin software (version 7.0) as provided by the manufacturer. Independent experiments were repeated three times with similar results.

AtRALF1: root-specific RALF isoform in Arabidopsis; recombinant peptide hormone produced in E. coli (ATTKYISYQSLKRNSVPCSRRGASYYNCQNGAQANPYSRGCSKIARCRS; ends and bridges not checked; cysteine pairing not given here)
number of binding sites (ITC experiment 1 of 3): 1.27
number of binding sites (ITC experiment 2 of 3): 1.5
N (number of binding sites) (representative experiment, Fig 6G, 15 mM HEPES, pH 6.8, 25°C): 1.27 sites

RALF1(9–49): inactive AtRALF1 peptide which has a deletion of the first 8 amino acids (QSLKRNSVPCSRRGASYYNCQNGAQANPYSRGCSKIARCRS; ends and bridges not checked; cysteine pairing not given here; UniProt Q9SRY3 80-120, looked up, fragment)
interaction with BAK1-ECD by ITC (BAK1-ECD 0.7 mM into 0.03 mM peptide, 15 mM HEPES, pH 6.8, 25°C): no interaction between the inactive analog and BAK1-ECD
